14 substances from patent US11634470B2, “Integrin binding peptides and uses thereof” (Universiteit Twente, priority 2015, dated 2023) can be followed below.

Primed or numbered codes have the meaning given here. Where no end group is shown, it is not given here. PEG(6) = PEG(6) linker

For assay [1], the system named is human skin fibroblasts BJhtert. Description: Scratch (wound) migration of human skin fibroblasts. The class given is cell-based. The settings on record: after 24 hours. Here is the method: FIG. 15: Effect of peptides on migration of human fibroblasts. Human skin fibroblasts BJhtert were grown to full confluency and a scratch (wound) was made and effects of peptides were determined on the wound closure (migration of fibroblasts) after 24 hours. […] (1. SEQ ID NO:8, 2. SEQ ID NO: 11, 3. SEQ ID NO:62, 4. SEQ ID NO:63, 5. SEQ ID NO: 64, 6. SEQ ID NO:76, and 7. SEQ ID NO:68.)

Assay [2] relates to primary human pancreatic stellate cells. Description: AXI-I-PEG-FITC binding assay, flow cytometry. The assay is classed as cell-based. The settings on record: suspended PSCs, 1 hour at 4° C. Also noted: unit not given here. On the procedure: PSCs were trypsinized using trypsin-EDTA solution and cell numbers were diluted to 4×10^4 cells/ml. Cells were incubated at 37° C. for 30 minutes to allow receptor recovery. Then different concentrations of AXI-I-FITC was added to the cells containing 2% FBS and incubated at 4° C. for 60 minutes. Thereafter, cells were centrifuged at 1500 rpm at 4° C. for 10 minutes. Supernatant was removed and cells were washed 3 times with PBS and then were fixed with 0.5% formaldehyde for 1 hour at 4° C. and measured with flow cytometry for fluorescence.
For orientation: In flow cytometry, cells or beads pass a laser one at a time.

Assay [3] has as its target T1, ITGA11 receptor (α11β1) (Homo sapiens, UniProt Q9UKX5).
T1 construct: purchased R&D systems
Description: Binding of FITC-labeled peptides to coated ITGA11 receptor. The following applies: FITC-labeled peptide, 37° C. 1 hour. Here is the method: (§1) Purified ITGA11 receptor (α11β1; 100 μg/ml—stock; R&D systems) was diluted to 5 μg/ml with 1×PBS. 96-well ELISA White Maxisorb plate (Nunc) was coated with 50 μl of 5 μg/ml ITGA11 (or as control α5β1) receptor for overnight at 4° C. Then, wells were blocked for 3-4 hours with 200 μl of blocking buffer (1×PBS containing 5% BSA). Wells were washed three times with 200 μl of washing buffer (1×PBS containing 0.5% BSA and 0.05% TWEEN®-20). Peptides conjugated with FITC were diluted to different concentrations in washing buffer and then added to the plate and incubated at 37° C. for 1 hour. In addition, the binding of the peptide was blocked by co-incubation with 10× higher amount of unlabeled peptide. Subsequently, wells were washed three times with washing buffer. Then, 100 μl of 1×PBS was added and plates were read at 485 nm/520 nm with a fluorescence plate reader.

For assay [4], the target named is T2, α5β1 (Homo sapiens, UniProt P08648). Description: Binding of FITC-labeled peptide to coated control receptor α5β1. The following applies: similar to empty wells. Here is the method: as §1
T2 sequence (P08648 42-894 limits assumed): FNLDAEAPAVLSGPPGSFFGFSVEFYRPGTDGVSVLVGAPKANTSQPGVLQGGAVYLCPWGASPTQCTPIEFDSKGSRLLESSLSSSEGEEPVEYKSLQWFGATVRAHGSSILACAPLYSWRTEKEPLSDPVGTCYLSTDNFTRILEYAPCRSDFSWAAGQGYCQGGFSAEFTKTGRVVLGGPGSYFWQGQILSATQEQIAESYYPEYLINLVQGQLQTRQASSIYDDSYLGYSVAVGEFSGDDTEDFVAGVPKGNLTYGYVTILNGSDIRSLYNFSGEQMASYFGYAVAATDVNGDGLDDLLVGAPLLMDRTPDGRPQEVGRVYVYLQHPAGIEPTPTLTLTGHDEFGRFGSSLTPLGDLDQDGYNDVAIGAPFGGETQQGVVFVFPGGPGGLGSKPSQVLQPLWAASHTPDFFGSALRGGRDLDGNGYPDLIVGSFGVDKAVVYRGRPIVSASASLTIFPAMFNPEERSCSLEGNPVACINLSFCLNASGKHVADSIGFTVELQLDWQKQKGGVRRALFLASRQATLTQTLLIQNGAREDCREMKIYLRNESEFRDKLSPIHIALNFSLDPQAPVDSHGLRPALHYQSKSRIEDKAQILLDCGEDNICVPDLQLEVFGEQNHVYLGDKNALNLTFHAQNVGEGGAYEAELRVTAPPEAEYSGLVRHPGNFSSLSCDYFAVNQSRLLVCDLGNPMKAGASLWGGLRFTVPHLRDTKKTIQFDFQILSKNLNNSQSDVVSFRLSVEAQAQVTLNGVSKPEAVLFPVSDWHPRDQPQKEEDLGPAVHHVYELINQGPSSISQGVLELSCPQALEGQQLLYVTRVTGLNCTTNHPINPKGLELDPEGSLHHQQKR
T2 sequence (P08648 895-995 limits assumed): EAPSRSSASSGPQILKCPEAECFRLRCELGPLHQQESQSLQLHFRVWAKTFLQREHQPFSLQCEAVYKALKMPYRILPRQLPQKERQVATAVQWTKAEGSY
T2 sequence (P05556 21-728 partner limits assumed): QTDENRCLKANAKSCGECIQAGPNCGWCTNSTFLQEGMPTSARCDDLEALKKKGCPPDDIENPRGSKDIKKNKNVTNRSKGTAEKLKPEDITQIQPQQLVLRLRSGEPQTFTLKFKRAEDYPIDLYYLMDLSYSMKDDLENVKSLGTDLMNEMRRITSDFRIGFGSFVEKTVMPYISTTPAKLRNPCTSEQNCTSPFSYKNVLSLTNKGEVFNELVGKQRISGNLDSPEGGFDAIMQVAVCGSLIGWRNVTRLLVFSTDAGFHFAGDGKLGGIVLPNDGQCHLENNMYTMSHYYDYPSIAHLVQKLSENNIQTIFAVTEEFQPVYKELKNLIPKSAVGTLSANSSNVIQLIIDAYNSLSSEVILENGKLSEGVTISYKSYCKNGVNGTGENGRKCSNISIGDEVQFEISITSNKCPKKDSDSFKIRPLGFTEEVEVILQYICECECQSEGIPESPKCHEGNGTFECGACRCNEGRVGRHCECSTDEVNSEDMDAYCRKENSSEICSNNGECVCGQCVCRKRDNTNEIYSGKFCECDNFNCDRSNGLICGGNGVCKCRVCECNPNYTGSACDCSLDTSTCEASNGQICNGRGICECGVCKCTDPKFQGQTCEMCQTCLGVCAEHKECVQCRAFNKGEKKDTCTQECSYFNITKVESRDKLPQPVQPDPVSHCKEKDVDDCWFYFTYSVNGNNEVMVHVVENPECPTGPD
For assay [5], the target named is T2, α5β1. Description: ITGA5 peptide selection, overlapping fibronectin peptides displayed on membrane. The assay is classed as binding. The settings on record: peptides attached by C-terminal on membrane, 5 μg/ml α5β1. Also noted: purchased R&D systems. On the procedure:
Peptides were attached to their c-terminal site using stable linker. […] The peptide-displaying […] membrane was soaked in methanol for 1 minute and rinsed in Tris-buffered saline (TBS) and washed 3 times. Then, the membrane was blocked with 3% BSA in 0.05% TWEEN®-20 containing TBS (TBST) for 3 hours at room temperature. Then, the membrane was washed for 10 minutes with TBST and incubated with 5 μg/ml α5β1 human recombinant protein (R&D systems) in 3% BSA in TBST for 1 hour at room temperature and then overnight at 4° C. Subsequently, the membrane was washed 3 times with TBST. Thereafter, the bound receptor to the membrane was transferred to the PVDF membrane. To achieve this, first, the PVDF membrane was soaked in methanol for 1 minute and then blocked with 5% skimmed fat milk for 2 hours. Then, the membrane was incubated with primary anti-alpha5 integrin antibody (Sigma-Aldrich) for overnight in 5% skimmed milk. The membrane was washed 3 times with TBST and then incubated with anti-rabbit-HRP secondary antibody (Dako), washed and developed with chemiluminescence detection kit.

Assay [6] addresses α11β1 receptor (Homo sapiens, UniProt Q9UKX5). Description: Peptide microarray binding, alanine scanning and chain length scan of AXI-I. The following applies: receptor 10 μg/ml. On the procedure: Peptide microarray was prepared by conjugating peptides at their N-terminal to a glass slide using a PEG linker. […] For the binding studies, the peptide array was blocked with 3% BSA in TBST for 2 hours. Then the array slide was washed 5 times in TBST and subsequently incubated with the target receptor (α11β1, 10 μg/ml dissolved in PBS) for 1 hour at 37° C. The slides were washed with TBST and then incubated with primary antibody (1 μg/ml) against ITGA11 for 1 hour at 37° C. Then slides were washed and incubated with fluorescent dye labeled secondary antibodies for 30 minutes. The slides were washed with TBST and water and then dried and scanned with a microarray scanner to detect binding of the peptides. The enlightened spots were analyzed using ImageJ software. To determine the unspecific binding, a peptide array was incubated with only primary and secondary antibodies without the receptor incubation step. Then, the signal of unspecific binding was subtracted from the total binding to calculate specific binding.

For assay [7], the system named is human primary pancreatic stellate cells (PSCs). Description: TGF-β1 activation of pancreatic stellate cells. The following applies: TGFβ1-activated PSCs, immunostaining, 20 μM. The class given is cell-based. On the procedure:
Human primary pancreatic stellate cells (PSCs) were obtained from ScienCell (Carlsbad, Calif.) and were cultured in specified medium provided by the manufacturer, supplemented with penicillin/streptomycin. Cells were used less than the passage 9 and seeded on a Poly-L-Lysine-coated plate.
PSCs were seeded into a 12-well plate (6×10^4 cells/well, for gene expression) or 24-well plate (for staining) in complete medium. After 24 hours, cells were starved in serum-free medium and then after 24 hours, they were added with TGF-β1 (5 ng/ml) with/without the peptide.
After 24 hours of incubation, cells were lysed with the lysis buffer and total RNA was isolated using the GenElute™ Mammalian Total RNA Miniprep Kit. The RNA amount was measured by a NanoDrop® ND-1000 Spectrophotometer (Wilmington, Del.). Subsequently, cDNA was synthesized with iScript™ cDNA Synthesis Kit (BioRad, Veenendaal, The Netherlands). 10 ng cDNA was used for each PCR reaction. The real-time qPCR primers for human αSMA and RPS18 were purchased from Sigma (The Netherlands). Gene expression levels were normalized to the expression of the house-keeping gene RPS18s.
For immunostaining, the cells were washed and fixed with acetone-methanol and processed for immunocytochemical staining.
For immunocytostaining, cells were fixed with acetone-methanol (1:1) at −20° C. for 30 minutes and then dried and rehydrated for 10 minutes. […]

The test system of assay [8] is LX2 hepatic stellate cells. Description: Cell binding experiment, fluorescence microscopy. The assay is classed as cell-based, human. The settings on record: FITC-labeled peptides 20 μM, 2 hours, room temperature. On the procedure: Human hepatic stellate cells (LX2, 15,000 cells/well) were cultured overnight in permanox Lab-Tek 8-well chamber slides (Nunc). After overnight incubation, cells were washed 3× with 0.5% BSA containing medium and then FITC-labeled peptides (20 μM) was added and incubated at room temperature for 2 hours with intermittent shaking. The cells were then washed 3× with 0.5% BSA containing medium and 2×PBS. Thereafter, cells were fixed with 4% paraformaldehyde (prepared in 1×PBS) for 20 minutes followed by 3 times washing with 1×PBS. Cells were then mounted with mounting medium with DAPI (vector labs) and visualized under the fluorescence microscope (Nikon E600). For phalloidin staining, cells after fixation were incubated with TRITC-conjugated Phalloidin (1:1000 prepared in 1×PBS containing 0.1% TRITON-X® 100) for 10 minutes. Then, cells were washed thrice with PBS and mounted with DAPI-containing mounting medium.

Assay [9] deals with T2, α5β1. Description: Peptide binding study on the coated receptor. The following applies: for binding to the coated α5β1 receptor: PEG(6)-Fluorescein labeled peptide. On the procedure:
The purified human recombinant α5β1 or α11β1 receptors (5 μg/ml in PBS) were coated onto 96-well ELISA plates (White Maxisorb-Nunc) by incubating overnight at 4° C. Then, the wells were blocked with blocking buffer (5% (w/v) BSA, 150 mM Nacl, 25 mM Tris) for 2 hours at room temperature. Then, the wells were washed three times with 200 μl of washing buffer (150 mM Nacl, 25 mM Tris-base, 0.005% TWEEN® 20, 0.5% BSA). Thereafter, the peptides conjugated with PEG(6)-FITC were diluted to different concentrations in washing buffer. For the competitive studies, the wells were co-incubated with 10-fold higher amount of unlabeled peptides. The plates were incubated at 37° C. for 60 minutes. Then, the wells were washed three times with washing buffer and subsequently, the plates were read for the fluorescein signal Ex/Em 485 nm/520 nm using a fluorescent plate reader (Perkin Elmer).

T1 sequence (Q9UKX5 23-1141 limits assumed): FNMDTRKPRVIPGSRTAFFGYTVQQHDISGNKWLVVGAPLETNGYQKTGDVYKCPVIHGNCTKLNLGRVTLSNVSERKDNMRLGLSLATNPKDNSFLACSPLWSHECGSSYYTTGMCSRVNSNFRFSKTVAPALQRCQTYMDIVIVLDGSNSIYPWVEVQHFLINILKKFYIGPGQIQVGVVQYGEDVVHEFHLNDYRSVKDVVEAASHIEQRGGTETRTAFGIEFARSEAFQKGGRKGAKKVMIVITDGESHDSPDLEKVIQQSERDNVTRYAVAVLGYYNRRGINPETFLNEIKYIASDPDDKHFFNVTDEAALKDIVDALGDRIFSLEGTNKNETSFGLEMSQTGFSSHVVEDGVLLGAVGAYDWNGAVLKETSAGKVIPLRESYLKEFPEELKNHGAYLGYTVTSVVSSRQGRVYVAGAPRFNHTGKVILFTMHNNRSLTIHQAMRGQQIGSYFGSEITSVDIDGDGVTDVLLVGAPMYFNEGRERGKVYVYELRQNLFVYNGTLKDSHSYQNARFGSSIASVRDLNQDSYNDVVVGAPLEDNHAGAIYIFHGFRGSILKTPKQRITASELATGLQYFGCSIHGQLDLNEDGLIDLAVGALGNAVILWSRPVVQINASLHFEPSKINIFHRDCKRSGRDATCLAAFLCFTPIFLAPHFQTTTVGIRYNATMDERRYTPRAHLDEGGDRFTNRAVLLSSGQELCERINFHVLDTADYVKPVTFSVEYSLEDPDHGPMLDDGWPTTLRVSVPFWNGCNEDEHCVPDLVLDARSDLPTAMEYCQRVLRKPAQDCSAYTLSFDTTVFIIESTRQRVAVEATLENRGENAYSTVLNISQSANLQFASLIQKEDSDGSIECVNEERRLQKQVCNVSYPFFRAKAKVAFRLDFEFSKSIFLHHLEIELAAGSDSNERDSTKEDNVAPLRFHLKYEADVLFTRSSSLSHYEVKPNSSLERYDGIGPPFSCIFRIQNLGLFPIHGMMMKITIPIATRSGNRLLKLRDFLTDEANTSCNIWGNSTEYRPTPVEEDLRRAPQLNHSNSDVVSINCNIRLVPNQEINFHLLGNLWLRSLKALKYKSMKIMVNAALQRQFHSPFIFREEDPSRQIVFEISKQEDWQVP
T1 sequence (P05556 21-728 partner limits assumed): as the sequence (P05556 21-728 partner limits assumed) above
α11β1 receptor, sequence (Q9UKX5 23-1141 limits assumed): as the sequence (Q9UKX5 23-1141 limits assumed) above
α11β1 receptor, sequence (P05556 21-728 partner limits assumed): as the sequence (P05556 21-728 partner limits assumed) above

Consider “AV3.3: AV3 variant of FIG. 15 Panel B; possibly third listed peptide, SEQ ID NO:62 (RAYRITY; ITGA5 binding peptide)”, for which the reduction on migration entry in assay [1] is listed as “about 30%”.
For the substance “AXI-I-FITC: AXI-I peptide labeled with PEG(6)-FITC (SGLTEWLRWFNS; also: labeled with PEG(6)-FITC, site not given here)”, the “concentration at which binding reached plateau” value in [2] worked out at 20. Further, the “binding to coated ITGA11 (α11β1) receptor” value in assay [3] is listed as “bound to the ITGA11 receptor specifically”. For the same substance, the “binding to irrelevant receptor α5β1” value in assay [4] is “very low binding”.
As for GDSPASSKPISI [Seq 5], in assay [5], the “binding to the α5β1 receptor (signal strength)” value (shortened to “binding to the α5β1 receptor”) was “GDSPASSKPISI-moderate”.
ITANSFTVHWIA [Seq 1]: the “binding to the α5β1 receptor” value in [5] is on record as “ITANSFTVHWIA-weak”.
Regarding LTEWLRWF (ITGA11 binding peptide), the “binding to the α11β1 receptor on peptide microarray” value in assay [6] is “strongest binding”.
With “RYYRITYC (integrin binding peptide) [AV3-cys]”, the “expression of fibrotic markers α-SMA, Col-1a1 and vimentin” value in assay [7] is on record as “clearly inhibited the expression of these biomarkers”. Further, in assay [1], the “migration of fibroblasts (wound closure)” value was “significantly inhibited the migration of fibroblasts”.
Consider “SFATWTPNFERN (integrin binding peptide) [AXI-II]”, for which the “binding to LX2 hepatic stellate cells” value in [8] was “bound to the stellate cells”.
As for SIELTNLLVRYS [Seq 6], the “binding to the α5β1 receptor” value in [5] is “SIELTNLLVRYS-moderate”.
On the same count and under the same terms, in the case of TNLLVRYSPVKN [Seq 7] it was “TNLLVRYSPVKN-moderate”; in that of “TTVRYYRITYGE (integrin binding peptide) [Seq 3]”, “TTVRYYRITYGE-strong”; in that of VALNGREESPLL [Seq 2], “VALNGREESPLL-very weak”.
As for “YYRITYGETGGN (ITGA5 binding peptide) [nAV2]”, the “binding to the coated α5β1 receptor” value in assay [9] is on record as “good binding”. Besides, the “blocking of nAV2-PEG-fluorescein binding to coated α5β1 by excess unlabeled peptide” value in [9] (excess (10-fold) of unlabeled peptide) is “blocked”. In assay [5], the “binding to the α5β1 receptor” value is reported as “YYRITYGETGGN-very strong”.
As to “YYRITYGETGGN (SEQ ID NO:56)-K-PEG(6)-Fluorescein (YYRITYGETGGNK-{PEG(6)-Fluorescein}) [nAV2-FITC]”, in assay [8], the “binding to LX2 hepatic stellate cells” value is given as “clearly bound to these cells”.
Take “YYRITYGETGGN: YYRITYGETGGN with PEG(6)-Fluorescein introduced at the N-terminal side of the peptide (not fully specified (N-terminus))”: the “binding to the coated α5β1 receptor” value in [9] is “no binding was observed”.
